Experimental data published in IntAct's records for PubMed 28712572.
Values belong to the substance of their own block, whether it stands above or below them.

Biological target: gbrap_human GABARAP (UniProt O95166)
Sequence (O95166 whole entry): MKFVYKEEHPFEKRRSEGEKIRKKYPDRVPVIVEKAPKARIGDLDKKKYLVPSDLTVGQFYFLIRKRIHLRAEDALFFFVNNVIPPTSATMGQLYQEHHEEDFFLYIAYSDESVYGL

Substance: Pericentriolar material 1 protein (Homo sapiens), Q15154 E1960Q
effect of a mutation on the interaction: with no effect

Substance: Pericentriolar material 1 protein (Homo sapiens), Q15154 E1960R
effect of a mutation on the interaction: with no effect

Substance: Pericentriolar material 1 protein (Homo sapiens), Q15154 E1960S
effect of a mutation on the interaction: with no effect

Substance: Pericentriolar material 1 protein (Homo sapiens), Q15154 E1960T
effect of a mutation on the interaction: with no effect

Substance: Pericentriolar material 1 protein (Homo sapiens), Q15154 E1960Y
effect of a mutation on the interaction: with no effect

Substance: Pericentriolar material 1 protein (Homo sapiens), Q15154 E1961D
effect of a mutation on the interaction: with no effect

Substance: Pericentriolar material 1 protein (Homo sapiens), Q15154 E1961F
effect of a mutation on the interaction: with no effect

Substance: Pericentriolar material 1 protein (Homo sapiens), Q15154 E1961G
effect of a mutation on the interaction: with no effect

Substance: Pericentriolar material 1 protein (Homo sapiens), Q15154 E1961H
effect of a mutation on the interaction: with no effect

Substance: Pericentriolar material 1 protein (Homo sapiens), Q15154 E1961M
effect of a mutation on the interaction: decreasing interaction strength

Substance: Pericentriolar material 1 protein (Homo sapiens), Q15154 E1961N
effect of a mutation on the interaction: with no effect

Substance: Pericentriolar material 1 protein (Homo sapiens), Q15154 E1961Q
effect of a mutation on the interaction: with no effect

Substance: Pericentriolar material 1 protein (Homo sapiens), Q15154 E1961S
effect of a mutation on the interaction: with no effect

Substance: Pericentriolar material 1 protein (Homo sapiens), Q15154 E1961T
effect of a mutation on the interaction: with no effect

Substance: Pericentriolar material 1 protein (Homo sapiens), Q15154 E1961W
effect of a mutation on the interaction: with no effect

Substance: Pericentriolar material 1 protein (Homo sapiens), Q15154 E1961Y
effect of a mutation on the interaction: with no effect

Substance: Pericentriolar material 1 protein (Homo sapiens), Q15154 E1967D
effect of a mutation on the interaction: with no effect

Substance: Pericentriolar material 1 protein (Homo sapiens), Q15154 E1967F
effect of a mutation on the interaction: with no effect

Substance: Pericentriolar material 1 protein (Homo sapiens), Q15154 E1967G
effect of a mutation on the interaction: with no effect

Substance: Pericentriolar material 1 protein (Homo sapiens), Q15154 E1967H
effect of a mutation on the interaction: with no effect

Substance: Pericentriolar material 1 protein (Homo sapiens), Q15154 E1967I
effect of a mutation on the interaction: with no effect

Substance: Pericentriolar material 1 protein (Homo sapiens), Q15154 E1967K
effect of a mutation on the interaction: with no effect

Substance: Pericentriolar material 1 protein (Homo sapiens), Q15154 E1967L
effect of a mutation on the interaction: with no effect

Substance: Pericentriolar material 1 protein (Homo sapiens), Q15154 E1967M
effect of a mutation on the interaction: with no effect

Substance: Pericentriolar material 1 protein (Homo sapiens), Q15154 E1967N
effect of a mutation on the interaction: with no effect

Substance: Pericentriolar material 1 protein (Homo sapiens), Q15154 E1967Q
effect of a mutation on the interaction: with no effect

Substance: Pericentriolar material 1 protein (Homo sapiens), Q15154 E1967T
effect of a mutation on the interaction: with no effect

Substance: Pericentriolar material 1 protein (Homo sapiens), Q15154 E1967V
effect of a mutation on the interaction: with no effect

Substance: Pericentriolar material 1 protein (Homo sapiens), Q15154 E1967W
effect of a mutation on the interaction: with no effect

Substance: Pericentriolar material 1 protein (Homo sapiens), Q15154 E1967Y
effect of a mutation on the interaction: with no effect

Substance: Pericentriolar material 1 protein (Homo sapiens), Q15154 F1963A
effect of a mutation on the interaction: disrupting interaction strength

Substance: Pericentriolar material 1 protein (Homo sapiens), Q15154 F1963C
effect of a mutation on the interaction: disrupting interaction strength

Substance: Pericentriolar material 1 protein (Homo sapiens), Q15154 F1963D
effect of a mutation on the interaction: disrupting interaction strength

Substance: Pericentriolar material 1 protein (Homo sapiens), Q15154 F1963E
effect of a mutation on the interaction: disrupting interaction strength

Substance: Pericentriolar material 1 protein (Homo sapiens), Q15154 F1963G
effect of a mutation on the interaction: disrupting interaction strength

The remaining lines, values ahead:

effect of a mutation on the interaction: decreasing interaction strength
Substance: Pericentriolar material 1 protein (Homo sapiens), Q15154 E1960V

effect of a mutation on the interaction: with no effect
Substance: Pericentriolar material 1 protein (Homo sapiens), Q15154 E1960W

effect of a mutation on the interaction: with no effect
Substance: Pericentriolar material 1 protein (Homo sapiens), Q15154 E1961A

effect of a mutation on the interaction: with no effect
Substance: Pericentriolar material 1 protein (Homo sapiens), Q15154 E1961C

effect of a mutation on the interaction: with no effect
Substance: Pericentriolar material 1 protein (Homo sapiens), Q15154 E1961I

effect of a mutation on the interaction: disrupting interaction strength
Substance: Pericentriolar material 1 protein (Homo sapiens), Q15154 E1961K

effect of a mutation on the interaction: with no effect
Substance: Pericentriolar material 1 protein (Homo sapiens), Q15154 E1961L

effect of a mutation on the interaction: decreasing interaction strength
Substance: Pericentriolar material 1 protein (Homo sapiens), Q15154 E1961P

effect of a mutation on the interaction: decreasing interaction strength
Substance: Pericentriolar material 1 protein (Homo sapiens), Q15154 E1961R

effect of a mutation on the interaction: decreasing interaction strength
Substance: Pericentriolar material 1 protein (Homo sapiens), Q15154 E1961V

effect of a mutation on the interaction: with no effect
Substance: Pericentriolar material 1 protein (Homo sapiens), Q15154 E1967A

effect of a mutation on the interaction: with no effect
Substance: Pericentriolar material 1 protein (Homo sapiens), Q15154 E1967C

effect of a mutation on the interaction: with no effect
Substance: Pericentriolar material 1 protein (Homo sapiens), Q15154 E1967P

effect of a mutation on the interaction: with no effect
Substance: Pericentriolar material 1 protein (Homo sapiens), Q15154 E1967R

effect of a mutation on the interaction: with no effect
Substance: Pericentriolar material 1 protein (Homo sapiens), Q15154 E1967S
